{"source": "patent US20210009693A1", "about": "(MABSPACE BIOSCIENCES SUZHOU, published 2021)", "binders": {"B1": {"name": "22C9-C (antibody, V domains shown)", "VH": "QVQLQQSGAELVKPGASVKLSCKASGYTFTSYWMHWVWQRPGQGLEWIGMIHPNSDITNCNENFKHTVTLTVDKSSSTAYMQLSSLTSEDSAVFYCARSDGSSYWYFDVWGTGTTVTVSS", "VL": "SIVMTQTPKFLSVSAGDRVTITCKAGQSVNNDVAWYQQKPGQSPKLLIYYASNRYTGVPDRFTGSGYGTDFTFTISTVQAEDLAVYFCQQDFSSPLTFGAGTKLELK", "notes": "Mouse variable regions fused to a human IgG1 constant region; also called 22C9-chimeric; chimeric antibody 22C9"}, "B2": {"name": "23A11-H3L3 (antibody, V domains shown)", "VH": "LVQLVQSGAEVKKPGASVKLSCKASGYIFTTYWIHWVKQRPGQGLEWIGMIQPNSGGTKYNDQFKNRATLTVDKSISTAYMELSRLTSDDTAVYYCARGAGTVDYFDYWGQGTTLSISS", "VL": "DIVLTQSPASLAVSVGQRATITCRASESVDIYGNSFMHWYQQKPGQSPKLLIYRASNLESGIPARFSGSGSRTDFTLTINPVEANDTATYYCHQSNDDPYTFGGGTKLETK", "notes": "Humanized; also called humanized 23A11 H3L3"}, "B3": {"name": "23A11 (antibody, V domains shown)", "VH": "LVQLQQPGAELVKPGASVKLSCKASGYIFTTYWIHWVKQRPGQGLEWIGMIQPNSGGTKYNDQFKNRATLTVDKSSTTASMQLSGLTSEDSAVYYCARGAGTVDYFDYWGQGTTLSISS", "VL": "B2 VL with A12T, V15L, T22S, N85D, T87V", "notes": "also called mouse monoclonal antibody 23A11; clone 23A11"}, "B4": {"name": "23A11-H5L5 (antibody, V domains shown)", "VH": "B2 VH with L20V, K38R, R40A, A68V, K74T, T87R", "VL": "B2 VL with S47A, H93Q", "notes": "produced in 293 cells; also called humanized 23A11 H5L5"}, "B5": {"name": "23A11-H5L3 (antibody, V domains shown)", "VH": "B2 VH with L20V, K38R, R40A, A68V, K74T, T87R", "VL": "B2 VL", "notes": "produced in 293 cells; also called humanized 23A11 H5L3"}}, "key": {"[1]": {"target": "T1, Recombinant Human PD-L1/CD274 Protein (hPD-L1-his) (human, UniProt Q9NZQ7 19-238)", "T1 construct": "range 19-238; ACRO Biosystem PD1-H5229, made in HEK293; also called human PD-L1-his; hPD-L-his", "T1 sequence (Q9NZQ7 other isoform, or with tags, fused parts or gaps limits assumed)": "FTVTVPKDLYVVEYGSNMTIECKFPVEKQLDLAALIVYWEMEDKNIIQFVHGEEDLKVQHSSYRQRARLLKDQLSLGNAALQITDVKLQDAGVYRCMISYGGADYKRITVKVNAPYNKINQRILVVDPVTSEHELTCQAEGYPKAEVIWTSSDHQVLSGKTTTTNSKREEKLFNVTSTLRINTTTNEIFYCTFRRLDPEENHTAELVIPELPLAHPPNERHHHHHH", "experiment": "ELISA, coated hPD-L1-his, acidic wash and incubation after binding at pH7.4", "method": "(§1) The pH-dependent binding affinity was further measured at various pH values, such as pH4, pH4.5, pH5.0, pH5.5, pH6.0, pH7.4. The measurement by ELISA was conducted similarly to the method described above. High-binding clear polystyrene 96 well plates were coated with 100 μl/well of a 0.5 μg/ml hPD-L1-his in high pH coating buffer and incubated overnight at 4° C. Then the coated plates were washed 3 times with shaking for 10s on an automatic plate washer with PBS+0.1% Tween 20 (Amresco). Then 200 μl of blocking buffer (1% BSA (Solarbio)+1% normal goat serum (Solarbio)+0.05% Tween 20 (Amresco)) was added to each well and the plates were then incubated for 2 hours at room temperature and washed 3 times as above. […] The plates were then washed once with 250 μl/well washing buffer at pH7.4, pH6.0, pH5.5, pH5.0, pH4.5 or pH4.0 and then 100 μl/well pH7.4 or pH5.5 washing buffer was added and the incubation was continued for 2 hours at RT with shaking. Afterwards, the plates was washed 3 times washing buffer at pH7.4 and 100 μl/well of a solution of HRP conjugated goat anti-hIgG HRP antibody (1:20000, Abcam) in pH7.4 dilution buffer was then added to each well of the plate. After that the plates were allowed to incubate for 60 min at room temperature followed by washing 3 times with 250 μl/well pH7.4 washing buffer. Finally, 100 μl/well of TMB was added to each well for 15 min and the reaction was terminated using 50 μl/well of 0.16M/L sulfuric acid. The plates were read on a Thermo Multiscan FC at 450 nm (see FIG. 23A-23F). The measurements were performed in triplicate."}, "[2]": {"target": "T1, Recombinant Human PD-L1/CD274 Protein …", "experiment": "ELISA on coated hPD-L1-his; bound at pH7.4, then 2 h at pH7.4", "method": "as §1"}, "[3]": {"target": "T1, Recombinant Human PD-L1/CD274 Protein …", "experiment": "ELISA on coated hPD-L1-his"}, "[4]": {"target": "hPD-L1 (antigen of the Biacore assay) (human, UniProt Q9NZQ7 19-238, limits assumed)", "sequence (Q9NZQ7 19-238 limits assumed)": "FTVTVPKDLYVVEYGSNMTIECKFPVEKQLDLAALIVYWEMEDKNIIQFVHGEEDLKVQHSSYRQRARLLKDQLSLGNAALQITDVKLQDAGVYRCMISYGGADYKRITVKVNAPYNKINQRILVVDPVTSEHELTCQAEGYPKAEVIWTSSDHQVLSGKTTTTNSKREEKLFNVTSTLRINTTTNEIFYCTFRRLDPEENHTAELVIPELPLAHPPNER", "experiment": "SPR (Biacore), antibody captured on anti-human Fc, antigen in flow", "method": "A CM5 sensor chip was activated in each flow cell by 7-min injection (10 μl/min) of freshly prepared 1:1 50 mM N-hydroxysuccinimide (NHS): 200 mM 1-ethyl-3-(3-dimethylaminopropyl)-carbodiimide (EDC). Then anti-human Fc antibody (GE Healthcare) in a concentration of 10 μg/ml in 10 mM sodium acetate buffer PH 5.0 was injected onto the activated chip at 10 μl/min (HBS-EP running buffer: 10 mM HEPES, 150 mM NaCl, 3.4 mM EDTA, 0.005% surfactant P20, pH 7.4). The remaining active coupling sites were blocked by 7 min injection of 1M ethanolamine at 10 μl/min. The immobilization level of each flow cell is ˜9000RU. Antibodies were captured in FC2 by anti-human Fe IgG (GE Healthcare) to 200˜300RU. FC1 was used as the reference cell. Antigen was injected at varying concentrations after capture of antibody. The association time for antibody binding antigen is 180s. Surface Regeneration condition is 120s at 10 μl/min in Gly pH1.5. The signals with captured antibody subtracted from those without captured antibody were calculated with Biacore X100 evaluation software ver. 2.0 (Biacore)."}, "[5]": {"target": "T2, Human PD-L1/CD274 with C-Fc Tag (hPD-L1-Fc) (human, UniProt Q9NZQ7 19-238)", "T2 construct": "range 19-238; ACRO Biosystem PD1-H5258, made in HEK293; also called human PD-L1-Fc; not shown: Fc fragment of human IgG1 at C-terminus", "T2 sequence (Q9NZQ7 19-238 limits assumed)": "as above", "experiment": "blocking ELISA on coated hPD-L1-Fc; blocked ligand: biotinylated hPD-1-N297A", "method": "High-binding clear polystyrene 96 well plates (Nunc) were coated with 100 μl/well of coating solution consisting of 1 μg/ml hPD-L1-Fc overnight at 4° C. Then the plates were washed once on an automatic plate washer using washing buffer (PBS+0.1% Tween 20 (Sigma)). 200 μl of blocking buffer (PBS+1% BSA+1% normal goat serum+0.05% Tween-20) was added to each well and incubated 2 hours at room temp. […] The plates were then washed 3 times using the method described above. […] After the plates were washed 3 times, 100 μl/well of a solution of 1:5000 diluted HRP conjugated Neutravidin antibody (Pierce) in dilution buffer was then added to each well of the plate. After that the ELISA plates were allowed to incubate for 60 min at RT, then the plates were washed 3 times with 250 μl/well washing buffer. Finally, 100 μl/well of TMB was added to each well and the reaction was terminated using 0.64M H₂SO₄. The plates were read on a Thermo Multiscan FC at 450 nM (see FIG. 18A to 18D)."}, "[6]": {"target": "T3, hPD-L2-Fc (human, UniProt Q9BQ51 20-219)", "T3 construct": "Acrobiosystems PD2-H5251; also called human PD-L2 protein; not shown: Fc tag", "T3 sequence (looked up)": "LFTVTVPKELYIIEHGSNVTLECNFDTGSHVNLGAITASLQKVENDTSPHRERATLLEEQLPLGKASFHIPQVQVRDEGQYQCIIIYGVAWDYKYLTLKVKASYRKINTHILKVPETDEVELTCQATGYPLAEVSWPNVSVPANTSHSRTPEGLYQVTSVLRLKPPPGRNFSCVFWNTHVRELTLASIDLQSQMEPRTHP", "experiment": "ELISA, plate coated with hPD-L2-Fc", "method": "Briefly, high-binding clear polystyrene 96 well plates (Nunc) were coated with 100 μl/well of a 0.5 μg/ml human PD-L1-Fc (Acrobiosystems, Cat #PD1-H5258) or 100 μl/well of a 1 μg/ml hPD-L2-Fc (Acrobiosystems, Cat #PD2-H5251), respectively, in high pH coating buffer (0.16% Na2CO3+0.3% NaHCO₃, pH 9.8) and incubated overnight at 4° C. Then the plates were washed once on an automatic plate washer using washing buffer (PBS+0.1% Tween 20 (Amresco)). 200 μl of blocking buffer (PBS+1% BSA+1% normal goat serum+0.05% Tween-20) was added to each well and incubated for 2 hours at room temp. Then add 100 μl 2 μg/ml purified PD-L1 antibodies with dilution buffer (PBS+1% BSA+1% normal goat serum+0.01% Tween-20) and incubate for 1 hour at RT. The plates were then washed 3 times with washing buffer. 100 μl/well of a solution of HRP conjugated goat anti-mouse IgG antibody (1:20000, Abcam) in dilution buffer was then added to each well of the plate. After that the ELISA plates were allowed to incubate for 60 min at RT then the plates were washed 3 times with 250 μl/well washing buffer. Finally, 100 μl/well of TMB was added to each well for 15 min and the reaction was terminated using 50 ul/well of 0.16 M/L sulfuric acid. The plates were read on a Thermo Multiscan FC at 450 nM (see FIG. 6G)."}, "[7]": {"target": "T4, Recombinant Mouse PD-L1/CD274 Protein (mPD-L1-his) (mouse, UniProt Q9EP73 19-238)", "T4 construct": "range 19-238; ACRO Biosystem PD1-M5220; also called mouse PD-L1-his", "T4 sequence (Q9EP73 other isoform, or with tags, fused parts or gaps limits assumed)": "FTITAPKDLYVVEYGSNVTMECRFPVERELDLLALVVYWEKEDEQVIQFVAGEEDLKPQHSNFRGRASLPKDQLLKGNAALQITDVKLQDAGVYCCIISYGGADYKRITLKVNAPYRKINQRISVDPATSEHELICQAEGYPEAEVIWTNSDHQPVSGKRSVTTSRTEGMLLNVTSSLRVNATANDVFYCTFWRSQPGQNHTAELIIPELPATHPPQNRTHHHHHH", "experiment": "ELISA, 20 ug/ml antibody on coated mouse PD-L1 (his-tagged per text, mPD-L1-Fc per sheet title)", "method": "High-binding clear polystyrene 96 well plates (Nunc) were coated with 100 μl/well of 1 μg/ml mouse PD-L1-his in high pH coating buffer and incubated overnight at 4° C. Then plates were washed once on an automatic plate washer using washing buffer (PBS+0.1% Tween 20 (Sigma)). 200 μl of blocking buffer (PBS+1% BSA+1% normal goat serum+0.05% Tween-20) was added to each well and incubated for 2 hours at room temp. Then add 20 μg/ml purified hybridoma mouse antibodies in dilution buffer (PBS+1% BSA+1% normal goat serum+0.01% Tween-20) and incubate for 1 hour at RT. The plates were then washed 3 times with 250 μl/well washing buffer. 100 μl/well of a solution of HRP conjugated goat anti-mouse Fc antibody (Abcam) in dilution buffer was then added to each well of the plate. After that the ELISA plates were allowed to incubate for 60 min at RT then plates were washed 3 times with 250 μl/well washing buffer. Finally, 100 μl/well of TMB was added to each well and the reaction was terminated using 0.64M H₂SO₄. The plates were read on a Thermo Multiscan FC at 450 nM (see FIG. 6F)."}}, "note": "Positions count from the first letter of the chain named."}
{"binder": "B1", "values": [{"measurement": "binding signal at pH5 as percent of the signal at pH7.4", "setting": "[1]", "value": "< 50", "unit": "%"}, {"measurement": "binding signal at pH5.5 as percent of the signal at pH7.4", "setting": "[1]", "value": "< 75", "unit": "%"}, {"measurement": "EC50 (read off the curve)", "setting": "[2]", "value": "~0.06", "unit": "µg/mL"}]}
{"binder": "B2", "values": [{"measurement": "EC50 (read off the curve)", "setting": "[3]", "value": "~2", "unit": "ng/mL"}, {"measurement": "Kd", "setting": "[4]", "value": 74.1, "unit": "nM"}, {"measurement": "koff", "setting": "[4]", "value": 0.0542, "unit": "s⁻¹"}, {"measurement": "kon", "setting": "[4]", "value": 732000, "unit": "M⁻¹ s⁻¹"}, {"measurement": "IC50 (read off the curve)", "setting": "[5]", "value": "~0.07", "unit": "µg/mL"}]}
{"binder": "B3", "values": [{"measurement": "binding result", "setting": "[6]", "value": "no binding (tested: 2 ug/ml)"}, {"measurement": "binding result", "setting": "[7]", "value": "no binding (tested: 20 ug/ml)"}]}
{"binder": "B4", "values": [{"measurement": "EC50 (read off the curve)", "setting": "[3]", "value": "~2", "unit": "ng/mL"}, {"measurement": "IC50 (read off the curve)", "setting": "[5]", "value": "~0.1", "unit": "µg/mL"}]}
{"binder": "B5", "values": [{"measurement": "EC50 (read off the curve)", "setting": "[3]", "value": "~2", "unit": "ng/mL"}, {"measurement": "IC50 (read off the curve)", "setting": "[5]", "value": "~0.05", "unit": "µg/mL"}]}
